Tests used:
rhFAP = biological target: T1, rhFAP (Homo sapiens, UniProt Q12884); assay: Inhibition assay on SB9 oligopeptidase family (DQ-gelatin); assay type: biochemical; conditions: antibody up to 1000 nM, enzyme 0.2 nM
T1 construct: purchased Sino Biologicals 10464-H07H
T1 sequence (Q12884 26-760 limits assumed): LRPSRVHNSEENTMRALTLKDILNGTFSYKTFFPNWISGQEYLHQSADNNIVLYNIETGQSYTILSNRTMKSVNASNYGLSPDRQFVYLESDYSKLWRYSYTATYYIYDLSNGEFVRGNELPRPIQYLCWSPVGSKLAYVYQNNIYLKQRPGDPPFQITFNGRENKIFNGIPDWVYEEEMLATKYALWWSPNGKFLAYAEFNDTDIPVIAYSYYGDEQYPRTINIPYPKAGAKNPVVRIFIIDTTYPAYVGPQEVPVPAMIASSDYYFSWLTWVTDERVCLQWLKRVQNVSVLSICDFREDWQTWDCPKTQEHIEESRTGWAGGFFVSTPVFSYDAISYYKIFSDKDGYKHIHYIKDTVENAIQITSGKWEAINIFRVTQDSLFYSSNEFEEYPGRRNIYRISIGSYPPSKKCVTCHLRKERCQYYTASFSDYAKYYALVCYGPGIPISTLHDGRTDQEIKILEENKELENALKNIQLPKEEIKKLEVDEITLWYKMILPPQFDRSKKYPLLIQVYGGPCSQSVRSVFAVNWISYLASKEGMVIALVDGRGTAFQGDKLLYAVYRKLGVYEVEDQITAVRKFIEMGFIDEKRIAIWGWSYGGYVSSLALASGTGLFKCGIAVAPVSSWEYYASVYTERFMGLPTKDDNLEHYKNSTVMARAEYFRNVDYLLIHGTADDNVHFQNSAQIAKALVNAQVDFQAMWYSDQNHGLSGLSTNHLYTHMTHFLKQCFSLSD
Method: To determine the inhibitory ability of the antibody a black 96 well plate was blocked for 1 h with blocking buffer. NI-206.82C2 was pipetted at concentrations of 1000, 50, 10, 3.03, 1.01, 0.031, 0.001, and 0 nM in PBS into the according wells. The enzymes were added at a concentration of 0.2 nM. Finally, fluorgenic substrates were then added to the well at a concentration equal to the Michaelis constant (Km) and the velocity of the substrate cleavage was quantified by fluorescence at 360 nm excitation and 460 nm emission. H-Gly-Pro-AMC (AAT Bioquest, 13450) was used for DPP4, DPP9, and DPP8. Z-Gly-Pro-AMC (BaChem, I1145) was used to evaluate the activity of POP/PREP. FAP activity was assessed using DQ-gelatin (Life Technologies, D12054) and cleavage quantified at 495 nm excitation and 515 nm emission.

transmembrane human FAP = biological target: T2, transmembrane human FAP (Homo sapiens, UniProt Q12884); assay: Flow cytometry on FAP-HEK293 cells at pH 7.4, 6.8, 6.4; assay type: cell-based; conditions: pH 6.4 and 6.8 vs pH 7.4, FAP-HEK293 cells, Cy5 labelled
T2 construct: retrovirus encoding full length human FAP cDNA; host or cells: HEK293 (FAP-HEK293, G418 selected)
T2 sequence (Q12884 1-760): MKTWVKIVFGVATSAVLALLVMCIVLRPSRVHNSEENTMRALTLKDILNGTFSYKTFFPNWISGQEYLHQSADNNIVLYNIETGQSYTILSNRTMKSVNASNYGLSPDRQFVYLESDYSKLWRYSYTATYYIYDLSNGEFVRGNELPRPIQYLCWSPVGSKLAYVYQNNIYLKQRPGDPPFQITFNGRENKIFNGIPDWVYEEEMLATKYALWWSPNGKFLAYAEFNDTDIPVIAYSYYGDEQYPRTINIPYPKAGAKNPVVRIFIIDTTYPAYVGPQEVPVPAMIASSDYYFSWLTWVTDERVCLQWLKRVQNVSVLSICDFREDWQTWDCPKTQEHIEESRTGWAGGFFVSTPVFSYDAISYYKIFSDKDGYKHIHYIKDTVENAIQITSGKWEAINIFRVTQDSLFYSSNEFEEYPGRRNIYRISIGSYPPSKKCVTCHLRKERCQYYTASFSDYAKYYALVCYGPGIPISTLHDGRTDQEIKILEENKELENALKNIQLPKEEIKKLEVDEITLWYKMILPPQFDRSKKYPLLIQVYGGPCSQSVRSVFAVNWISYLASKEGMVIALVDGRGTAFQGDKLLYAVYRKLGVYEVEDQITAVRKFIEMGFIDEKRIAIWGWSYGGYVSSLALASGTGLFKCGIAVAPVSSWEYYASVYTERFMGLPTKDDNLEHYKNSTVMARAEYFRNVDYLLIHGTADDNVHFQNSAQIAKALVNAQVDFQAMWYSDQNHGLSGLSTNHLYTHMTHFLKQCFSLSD
Method: To evaluate the binding of NI-206.82C2 to transmembrane human FAP, an FAP expressing HEK293 cell line was received from the National Institutes of Health, Bethesda, Md. The generation of this FAP expressing HEK293 cells is described in: J. Exp. Med. 2013 Vol. 210 No. 6 1125-1135.
HEK293 cells were transduced with retrovirus encoding full length human FAP cDNA. Cloning was performed using Fast Cloning Pack and FastDigest restriction enzymes (both from Fermentas). Transient retroviral supernatants were generated by transfecting 293GP cells with the FAP plasmid using Lipofectamine 2000 (Invitrogen). Retroviral supernatants were collected at 48 h after transfection and centrifuged onto Retronectin-coated (10 μg/ml; Takara), non-tissue culture-treated 6-well plates at 2,000 G for 2 h at 32° C. These retroviral supernatants where then used to transduce HEK293 cells overnight. Transduced FAP-HEK293 cells were selected with 1 mg/ml G418 (CellGro). […]
To analyze antibody binding, fluorescent activated flow cytometry was performed using a BD Fortesa device for forward scatter, side scatter, and the mean fluorescent intensity (MFI) of the Cy5 channel was recorded using a […] laser excitation and 600/20 filter. Viable cells were gated by forward and side scatter, and singlets/doublet exclusion, and the MFI for Cy5 was quantified using FlowJo software Version 10.1.

inhibition of rhFAP (rhFAP): selectively inhibits
binding to transmembrane FAP, pH dependence (Δ MFI) (transmembrane human FAP): higher affinity at lower pHs
B1: NI-206.82C2: recombinant human memory B cell-derived monoclonal anti-FAP IgG1 antibody, variable regions in FIG. 1A, FAP inhibitory (antibody, V domains shown)
VH: QVQLQQSGPGLVKPSQTLSLTCAISGDSVSSNSVTWNWIRQSPSRGLEWLGRTYYRSKWYNDYAVSVKGRITINPDTSKNQFYLQLKSVTPEDAAVYYCARDSSILYGDYWGQGTLVTVSS
VL: QAVLTQPSSLSASPGASASLTCTLPSGINVGTYRIFWFQQKPGSPPQYLLSYKSDSDNHQGSGVPSRFSGSKDASANAGILLISGLQSEDEADYYCMIWHSSAWVFGGGTKLTVL

From patent US20170369592A1, “NOVEL ANTI-FIBROBLAST ACTIVATION PROTEIN (FAP) ANTIBODIES AND USES DERIVED THEREOF” (Mabimmune Diagnostics AG, priority 2015, published 2017)
